The values that follow are results of earlier work, collected in paper PMC7619008.

In the data set the target is substance P (Rattus norvegicus) (UniProt P06767).
Chain of UniProt P06767 (P06767 whole entry, looked up): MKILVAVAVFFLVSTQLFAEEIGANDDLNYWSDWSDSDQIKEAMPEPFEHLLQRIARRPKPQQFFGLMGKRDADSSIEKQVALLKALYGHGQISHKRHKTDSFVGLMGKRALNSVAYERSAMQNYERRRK

As for NK1 receptor (from UniProt P14600), the Kd is 3 nM.

A word on the Kd: it is the equilibrium constant for the complex coming apart.
